Test [1] deals with full length MuSK (wild type mouse, on primary myotubes) (mouse) (UniProt Q61006). Kind of test: cell-based or functional assay.
Test [2] addresses ΔIg3-MuSK (mouse, on primary myotubes from ΔIg3-MuSK mice) (mouse) (UniProt Q61006). The experiment in a line: cell-based or functional assay.

The values that follow come from US20230304012A1.

On to BMP4 (ligand), for which the figures for the Wnt11 transcription (qRT-PCR), fold increase after 25 ng/mL BMP4 for 2 hours in primary myotubes in test [1] and in test [2] were 5.8 fold and 2.6 fold, respectively.
